Test results published in publication PMC6981927, “In Situ Proteolysis Condition-Induced Crystallization of the XcpVWX Complex in Different Lattices” (International Journal of Molecular Sciences, 2020).

B1: XcpW (28–237), soluble truncation of the minor pseudopilin XcpW (domain or fragment)
chain: RMFDSVMQTDQATRVQEQRMRELVRAMGALERDLTQAVERPVRDELGDNRGAFLSEGENDQIVEFTRGGWRNPLGQARSRLQRVRWSLSGETLERRYWLVLDRAQDSKPRVQQVLDGVTALSWRFLDKEHNWQGHWPTDEGSEEERLESLPLAVEMTLEHRHYGKLVRVWRLLDPPLKQDQPQGQPGGENGENGEGGVPQPPEGMPGAPE
notes: XcpW, minor pseudopilin of the type II secretion system, Pseudomonas aeruginosa PAO1, residues 28-237; Tags removed by TEV protease; residues left from the TEV site and the cloning site may remain at the N-terminus; In the crystals the complex was under in situ chymotrypsin proteolysis; source: E. coli (BL21 (DE3); results say codon plus cells), purified (Ni-NTA, TEV cleavage, second Ni-NTA, SEC …)
B2: XcpV (28–129), soluble truncation of the minor pseudopilin XcpV (domain or fragment)
chain: SASARSLQNASRLEDKTLAMWIADNRLNELQLEQTPPSSGRNQGELEFAGRRWEWRTQVDSTAEQDMRRVIVWVAAKPLGRERGSIEERAAARLVGFLGSQP
notes: XcpV, minor pseudopilin of the type II secretion system, Pseudomonas aeruginosa PAO1, residues 28-129; Tags removed by TEV protease; residues left from the TEV site and the cloning site may remain at the N-terminus; In the crystals the complex was under in situ chymotrypsin proteolysis; loops 59-66 and 103-113 are missing in the model of 6UTU; source: E. coli (BL21 (DE3)); results say codon plus …

Assays:
[1] = biological target: T1, XcpX (29–313), soluble truncation of the minor pseudopilin XcpX (Pseudomonas aeruginosa PAO1, UniProt Q00518 29-313); assay: SEC; three purified tag-free pseudopilins mixed at a molar ratio of 1.5:1:1 (XcpV:XcpW:XcpX), 4 °C overnight; Superdex 75, 25 mM HEPES pH 7.0, 150 mM NaCl, 1 mM CaCl2; peak fractions analysed by SDS-PAGE; settings: both partners purified
T1 construct: XcpX, minor pseudopilin of the type II secretion system, Pseudomonas aeruginosa PAO1, residues 29-313; Tags removed by TEV protease; residues left from the TEV site and the cloning site may remain at the N-terminus; In the crystals the complex was under in situ chymotrypsin proteolysis; some loops are missing in the model of 6UTU; source: E. coli (BL21 (DE3); results say codon plus cells), …
T1 sequence: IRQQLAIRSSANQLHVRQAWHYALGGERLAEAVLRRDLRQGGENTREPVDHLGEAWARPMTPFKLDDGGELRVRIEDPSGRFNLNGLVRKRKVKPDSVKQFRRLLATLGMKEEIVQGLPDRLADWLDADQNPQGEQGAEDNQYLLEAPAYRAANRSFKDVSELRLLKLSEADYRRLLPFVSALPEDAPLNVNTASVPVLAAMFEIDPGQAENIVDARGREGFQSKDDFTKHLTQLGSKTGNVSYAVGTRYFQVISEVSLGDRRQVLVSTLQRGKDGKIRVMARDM

[2] = biological target: B1; assay: as above; settings: both partners purified

Binder	stoichiometry N [1]	stoichiometry N [2]
B1	~1	
B2	~1	~1
